Assay results: patent US20090053725 (United States as represented by Secretary of the Air Force, published 2009)

Experiments:
Ovalbumin = Ovalbumin (UniProt P01012 P01012:2-386); test: control protein, no fluorescence increase; same conditions; Example 1 likewise no increase; conditions: tags: Sigma-Aldrich; immobilized on maleic anhydride plate; label: Birch Yellow T1 Evitag quantum dot on plus strand; BHQ2 quencher on negative strand; partial duplex, 3' 19 nt of the aptamer paired, 5' single-stranded overhang
Shiga toxin = Shiga toxin (UniProt Q9FBI2;Q7BQ98 Q9FBI2:23-315,Q7BQ98:21-89)
Sequence of Shiga toxin (Q9FBI2 23-315, chain 1 of 2): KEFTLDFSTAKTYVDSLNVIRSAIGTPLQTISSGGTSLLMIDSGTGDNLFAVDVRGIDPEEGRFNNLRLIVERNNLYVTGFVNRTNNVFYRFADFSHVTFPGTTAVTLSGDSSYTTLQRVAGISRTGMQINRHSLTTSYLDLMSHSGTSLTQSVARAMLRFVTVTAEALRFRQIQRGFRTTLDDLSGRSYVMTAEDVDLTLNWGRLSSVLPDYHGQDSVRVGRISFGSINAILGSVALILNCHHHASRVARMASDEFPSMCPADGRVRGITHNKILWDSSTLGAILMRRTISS
Sequence of Shiga toxin (Q7BQ98 21-89, chain 2 of 2): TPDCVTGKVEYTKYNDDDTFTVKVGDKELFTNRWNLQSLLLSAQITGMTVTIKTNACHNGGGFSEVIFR

Sequence of Ovalbumin (P01012 2-386, one chain of several): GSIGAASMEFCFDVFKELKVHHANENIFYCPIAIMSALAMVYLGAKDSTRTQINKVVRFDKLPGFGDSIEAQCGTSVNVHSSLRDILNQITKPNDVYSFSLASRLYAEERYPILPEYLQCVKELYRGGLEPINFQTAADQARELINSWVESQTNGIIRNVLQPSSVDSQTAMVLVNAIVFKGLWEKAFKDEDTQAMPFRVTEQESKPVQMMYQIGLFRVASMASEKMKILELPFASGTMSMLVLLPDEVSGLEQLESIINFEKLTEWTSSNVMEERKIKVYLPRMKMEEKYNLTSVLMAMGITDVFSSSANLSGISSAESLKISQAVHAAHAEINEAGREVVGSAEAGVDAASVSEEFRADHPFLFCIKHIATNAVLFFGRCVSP

Binder	binding result (Ovalbumin)	binding result (Shiga toxin)
STJ-9 annealed quenched complex (Plus STJ-9 / Negative STJ-9) (dsDNA, 3' amine on plus strand; 5' BHQ2 on negative strand) DNA 1: GGTAACTAGCATTCATTTCCCACACCCGTCCCGTCCATAT DNA 2: ATATGGACGGGACGGGTGT	no binding	
GGTAACTAGCATTCATTTCCCACACCCGTCCCGTCCATAT (ssDNA) [Plus STJ-9]		binds
